Laboratory results published in the supplement of paper PMC12338614.
± gives the uncertainty stated by the source.

B1: library; numbered along this chain (parent)
chain: MEVVDPQQLGMFTEGELMSVGMDTFIHRIDSTEVIYQPRRKRAKLIGKYLMGDLLGEGSYGKVKEVLDSETLCRRAVKILKKKKLRRIPNGEANVKKEIQLLRRLRHKNVIQLVDVLYNEEKQKMYMVMEYCVCGMQEMLDSVPEKRFPVCQAHGYFCQLIDGLEYLHSQGIVHKDIKPGNLLLTTGGTLKISDLGVAEALHPFAADDTCRTSQGSPAFQPPEIANGLDTFSGFKVDIWSAGVTLYNITTGLYPFEGDNIYKLFENIGKGSYAIPGDCGPPLSDLLKGMLEYEPAKRFSIRQIRQHSWFRKKHPPAEAPVPIPPSPDTKDRWRSMTVVPYLEDLHGADEDEDLFDIEDDIIYTQDFTVPGQVPEEEASHNGQRRGLPKAVCMNGTEAAQLSTKSRAEGRAPNPARKACSASSKIRRLSACKQQ

Variants of: B1
Test: STK11 functional score (HeLa growth suppression), rescaled enrichment; synonymous median = 1, nonsense median = 0 (normalised score)
Details: with HeLa; variant type: missense
Method: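 Deep mutational scan (TileSeq/POPCode codon randomisation) of full-length codon-optimised STK11 cDNA integrated at a Bxb1 landing pad (AAVS1) in HeLa cells. Restoring functional STK11 suppresses HeLa proliferation. Variant frequencies were measured by NGS before and after about two weeks of growth. The error-corrected enrichment log-ratio was rescaled so that synonymous median = 1 and nonsense median = 0, scores above 1 were compressed, and codon-level and three biological replicate scores were combined; error is the bootstrapped standard error. Scale: synonymous median = 1, nonsense median = 0; below 0.5 = damaging.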

Variant | STK11 functional score
H345D | 1.27 ± 0.37
A410S | 1.4 ± 0.26
A410R | 1.6 ± 0.14
Q152S | 0.733 ± 0.51
E351W | 1.48 ± 0.16
E351R | 1.26 ± 0.16
C151V | 1.17 ± 0.39
S213L | 1.17 ± 0.17
E317I | 1.55 ± 0.19
V34I | 1.1 ± 0.34
K423F | 1.07 ± 0.33
C134F | 0.425 ± 0.078
F157V | -0.0226 ± 0.15
D277S | 0.886 ± 0.28
G61E | 0.195 ± 0.23
T249W | 0.0979 ± 0.1
P221S | 1.07 ± 0.22
A76Q | 0.447 ± 0.14
N94Q | 1.2 ± 0.65
Q37V | 1.38 ± 0.15
L67H | 0.361 ± 0.41

Variant | STK11 functional score
L17I | 0.851 ± 0.16
G215S | 1.11 ± 0.18
P319H | 1.16 ± 0.43
P275T | 0.875 ± 0.18
I274W | 0.0744 ± 0.12
G180W | 1.44 ± 0.15
R310S | 1.54 ± 0.22
D330I | 1.33 ± 0.39
Q399E | 1.47 ± 0.45
K311I | 1.26 ± 0.24
G233D | 1.56 ± 0.24
G385A | 1.46 ± 0.15
P280L | 1.32 ± 0.19
N181E | -0.231 ± 0.13
K84N | 0.967 ± 0.3
S325V | 0.786 ± 0.11
V338Q | 1.54 ± 0.14
I192T | -0.0391 ± 0.45
S19W | 1.43 ± 0.4
S69M | 0.689 ± 0.1
G381D | 1.57 ± 0.29

Variant | STK11 functional score
A316L | 0.961 ± 0.14
A406W | 1.46 ± 0.11
A406S | 1.41 ± 0.33
G163A | 1.05 ± 0.2
F354Y | 1.31 ± 0.15
Q302R | 1.53 ± 0.25
Y340D | 0.511 ± 0.17
F234L | 0.75 ± 0.11
Q364H | 0.685 ± 0.66
D208S | 1.26 ± 0.13
R39E | -0.363 ± 0.48
V337F | 0.545 ± 0.31
F148I | 1.31 ± 0.41
Q7D | 1.33 ± 0.08
P217Y | 1.45 ± 0.31
I177S | -0.0448 ± 0.12
D207R | 1.55 ± 0.24
G346N | 1.6 ± 0.19
L228Y | 1.25 ± 0.54
I260N | 1.67 ± 0.52
A417C | 1.24 ± 0.52

Variant | STK11 functional score
A417G | 1.47 ± 0.26
P387Q | 1.37 ± 0.32
D359P | 1.5 ± 0.3
K64S | 1.53 ± 0.19
C158V | 0.897 ± 0.2
K81V | 0.987 ± 0.11
E223D | 0.948 ± 0.23
E223S | 0.551 ± 0.1
I46L | 1.25 ± 0.14
R384H | 1.47 ± 0.13
R384D | 1.2 ± 0.15
V133I | 1.24 ± 0.26
L400E | 1.58 ± 0.21
A205F | 1.35 ± 0.2
L195P | 1.49 ± 0.18
Y292T | 1.68 ± 0.3
Y292S | 1.28 ± 0.23
E256Y | 1.4 ± 0.16
S283W | 0.819 ± 0.087
L102V | 0.912 ± 0.083
